Experimental findings from patent EP4039268A1 are described below.

One may read the koff as a measure of how fast the partners let go of each other. High values mean fast dissociation, low ones slow dissociation. By kon is commonly meant the second-order rate constant of association. Broadly, the Ki is the dissociation constant of the complex between target and ligand, obtained from inhibition or displacement. Read a high Ki as a looser hold on the target.

In assay [1] the target is monomeric SARS-CoV-2 receptor binding domain (RBD-H6) (SARS-CoV-2) (UniProt P0DTC2). As to the kind of experiment: ELISA screen. Background: In an ELISA, binding on a coated surface is turned into a signal by an enzyme label.
In assay [2] the target is human recombinant soluble ACE2 (human) (UniProt Q9BYF1). As to the kind of experiment: ELISA screen.
human recombinant soluble ACE2 (human), sequence (Q9BYF1 18-740 limits assumed): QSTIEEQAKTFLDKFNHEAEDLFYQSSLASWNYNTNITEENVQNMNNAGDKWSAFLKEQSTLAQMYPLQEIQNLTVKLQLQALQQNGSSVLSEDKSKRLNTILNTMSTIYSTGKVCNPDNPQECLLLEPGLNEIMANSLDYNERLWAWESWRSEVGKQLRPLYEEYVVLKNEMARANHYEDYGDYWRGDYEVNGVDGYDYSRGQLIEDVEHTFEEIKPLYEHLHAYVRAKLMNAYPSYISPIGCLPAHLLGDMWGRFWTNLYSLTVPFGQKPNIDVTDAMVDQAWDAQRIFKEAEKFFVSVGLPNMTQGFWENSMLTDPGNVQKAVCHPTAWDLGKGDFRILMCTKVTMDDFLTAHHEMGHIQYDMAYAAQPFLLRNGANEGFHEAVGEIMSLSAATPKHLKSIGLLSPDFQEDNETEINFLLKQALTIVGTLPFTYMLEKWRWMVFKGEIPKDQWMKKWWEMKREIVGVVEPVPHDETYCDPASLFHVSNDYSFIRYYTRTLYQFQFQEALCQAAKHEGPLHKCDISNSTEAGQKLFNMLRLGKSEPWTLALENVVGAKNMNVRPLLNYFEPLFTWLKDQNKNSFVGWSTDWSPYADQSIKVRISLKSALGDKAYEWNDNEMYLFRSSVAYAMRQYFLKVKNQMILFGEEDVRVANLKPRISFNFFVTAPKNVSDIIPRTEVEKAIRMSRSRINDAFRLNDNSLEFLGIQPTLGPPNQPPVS
Assay [3] addresses full-length trimeric SARS-CoV-2 Spike protein (Spike-H6) (SARS-CoV-2). In words: ELISA screen.
The target is the same in assay [4]. In words: SPR, Spike immobilized, bivalent analyte model, first binding step.
Assay [5] has the same target. In words: high-speed AFM, from volumes.
For assay [6] the target is unchanged. As to the kind of experiment: AFM single molecule force spectroscopy, Evans model.
The target is the same in assay [7]. In words: inhibition of Spike binding to Vero E6 cells, AFM.

human CLEC4G-hIgG1 Fc-fusion protein (Fc fusion), sequence (Q6UXB4 53-293, form in doubt): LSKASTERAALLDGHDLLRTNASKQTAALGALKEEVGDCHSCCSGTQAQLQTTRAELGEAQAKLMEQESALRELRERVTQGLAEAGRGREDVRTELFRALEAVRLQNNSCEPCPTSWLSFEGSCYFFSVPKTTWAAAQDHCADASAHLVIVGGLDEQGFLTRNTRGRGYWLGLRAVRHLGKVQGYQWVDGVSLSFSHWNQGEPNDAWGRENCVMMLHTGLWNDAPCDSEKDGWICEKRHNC
Clec2h CRD-mouse IgG2a-Fc fusion protein, sequence (Q8C1T8 other isoform, or with tags, fused parts or gaps limits assumed): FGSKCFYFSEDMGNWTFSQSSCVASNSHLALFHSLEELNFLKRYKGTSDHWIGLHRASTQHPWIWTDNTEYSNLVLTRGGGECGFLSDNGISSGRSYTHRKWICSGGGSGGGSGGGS
Ly75_1 CRD-mouse IgG2a-Fc fusion protein, sequence (Q60767 other isoform, or with tags, fused parts or gaps limits assumed): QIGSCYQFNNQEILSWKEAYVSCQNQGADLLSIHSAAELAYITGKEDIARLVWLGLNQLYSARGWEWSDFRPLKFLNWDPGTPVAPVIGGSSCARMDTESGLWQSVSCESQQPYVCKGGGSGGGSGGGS
Olr1 CRD-mouse IgG2a-Fc fusion protein, sequence (Q9EQ09 other isoform, or with tags, fused parts or gaps limits assumed): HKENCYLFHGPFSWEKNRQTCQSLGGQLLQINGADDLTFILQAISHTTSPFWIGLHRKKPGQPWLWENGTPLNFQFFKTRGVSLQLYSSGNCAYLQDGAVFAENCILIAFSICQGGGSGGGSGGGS
Bcan CRD-mouse IgG2a-Fc fusion protein, sequence (Q61361 other isoform, or with tags, fused parts or gaps limits assumed): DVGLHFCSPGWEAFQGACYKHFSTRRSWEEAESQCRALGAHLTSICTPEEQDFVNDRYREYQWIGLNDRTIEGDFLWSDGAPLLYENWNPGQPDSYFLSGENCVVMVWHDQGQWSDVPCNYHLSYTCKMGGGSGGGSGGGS
Clec2i CRD-mouse IgG2a-Fc fusion protein, sequence (Q9WVF9 other isoform, or with tags, fused parts or gaps limits assumed): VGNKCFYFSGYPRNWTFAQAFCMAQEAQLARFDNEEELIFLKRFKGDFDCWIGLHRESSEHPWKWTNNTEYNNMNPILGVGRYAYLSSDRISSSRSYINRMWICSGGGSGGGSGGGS
Lgals4_1 CRD-mouse IgG2a-Fc fusion protein, sequence (Q8K419 other isoform, or with tags, fused parts or gaps limits assumed): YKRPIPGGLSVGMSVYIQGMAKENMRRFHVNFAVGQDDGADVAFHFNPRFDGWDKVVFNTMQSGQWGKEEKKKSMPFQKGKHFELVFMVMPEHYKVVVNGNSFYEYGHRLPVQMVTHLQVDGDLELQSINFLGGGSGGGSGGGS
Lgals6_2 CRD-mouse IgG2a-Fc fusion protein, sequence (O54891 other isoform, or with tags, fused parts or gaps limits assumed): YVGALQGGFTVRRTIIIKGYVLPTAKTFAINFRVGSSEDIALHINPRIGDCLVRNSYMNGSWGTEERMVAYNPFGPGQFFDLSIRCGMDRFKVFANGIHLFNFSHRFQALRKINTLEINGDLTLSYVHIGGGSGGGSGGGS
Clec2g CRD-mouse IgG2a-Fc fusion protein, sequence (Q9D676 other isoform, or with tags, fused parts or gaps limits assumed): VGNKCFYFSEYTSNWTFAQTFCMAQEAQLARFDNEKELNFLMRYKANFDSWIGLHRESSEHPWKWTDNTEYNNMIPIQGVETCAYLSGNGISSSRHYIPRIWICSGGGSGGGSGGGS
Ly75_2 CRD-mouse IgG2a-Fc fusion protein, sequence (Q60767 other isoform, or with tags, fused parts or gaps limits assumed): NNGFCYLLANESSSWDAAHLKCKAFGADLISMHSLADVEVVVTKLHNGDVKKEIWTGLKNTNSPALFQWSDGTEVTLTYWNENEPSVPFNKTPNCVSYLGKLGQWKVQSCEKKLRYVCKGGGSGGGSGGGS
Ncan CRD-mouse IgG2a-Fc fusion protein, sequence (P55066 other isoform, or with tags, fused parts or gaps limits assumed): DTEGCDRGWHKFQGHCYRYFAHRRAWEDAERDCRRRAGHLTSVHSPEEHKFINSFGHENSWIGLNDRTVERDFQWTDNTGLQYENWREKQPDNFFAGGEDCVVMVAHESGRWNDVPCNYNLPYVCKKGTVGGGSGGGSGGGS
Ly75_5 CRD-mouse IgG2a-Fc fusion protein, sequence (Q60767 other isoform, or with tags, fused parts or gaps limits assumed): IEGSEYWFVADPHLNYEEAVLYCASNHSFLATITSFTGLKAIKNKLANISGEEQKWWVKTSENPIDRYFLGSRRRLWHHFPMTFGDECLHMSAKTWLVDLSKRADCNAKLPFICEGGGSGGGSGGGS
Clec4g CRD-mouse IgG2a-Fc fusion protein, sequence (Q8BNX1 other isoform, or with tags, fused parts or gaps limits assumed): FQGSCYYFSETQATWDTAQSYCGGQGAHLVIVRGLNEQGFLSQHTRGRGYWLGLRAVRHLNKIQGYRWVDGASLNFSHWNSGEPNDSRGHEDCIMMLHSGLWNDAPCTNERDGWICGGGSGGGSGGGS
Asgr1 CRD-mouse IgG2a-Fc fusion protein, sequence (P34927 other isoform, or with tags, fused parts or gaps limits assumed): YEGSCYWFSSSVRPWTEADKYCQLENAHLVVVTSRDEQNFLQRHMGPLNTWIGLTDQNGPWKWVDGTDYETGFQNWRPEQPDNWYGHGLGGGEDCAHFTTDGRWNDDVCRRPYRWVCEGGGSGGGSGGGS

In the case of “Asgr1 CRD-mouse IgG2a-Fc fusion protein (from UniProt P34927 160-277)”, the Mean normalized OD in assay [1] came out at 0.697 OD.

With “Bcan CRD-mouse IgG2a-Fc fusion protein (from UniProt Q61361 658-786)”, the Mean normalized OD in assay [1] was determined as 0.101 OD.

On to “Cd33 CRD-mouse IgG2a-Fc fusion protein (from UniProt Q63994 17-120)”, for which the Mean normalized OD in assay [2] is 0.216 OD; in assay [1] it was 0.009 OD; in assay [3], 0.023 OD.

Turning to “Cd93 CRD-mouse IgG2a-Fc fusion protein (from UniProt O89103 31-173)”, the Mean normalized OD in assay [2] was -0.163 OD; in assay [1], -0.005 OD; in assay [3], 0 OD.

For “Cd209f CRD-mouse IgG2a-Fc fusion protein”, the Mean normalized OD in assay [2] stood at 0.182 OD; in assay [1], 0.015 OD; in assay [3], 0.018 OD.

For the substance “Clec2f CRD-mouse IgG2a-Fc fusion protein”, the Mean normalized OD in assay [2] was -0.261 OD; in assay [1] it was 0.045 OD; in assay [3], -0.02 OD.

Turning to “Clec2g CRD-mouse IgG2a-Fc fusion protein (from UniProt Q9D676 150-254)”, the Mean normalized OD in assay [1] amounted to 0.421 OD.

On to “Clec2h CRD-mouse IgG2a-Fc fusion protein (from UniProt Q8C1T8 97-201)”, for which the Mean normalized OD in assay [1] turned out to be 0.237 OD.

The substance “Clec2i CRD-mouse IgG2a-Fc fusion protein (from UniProt Q9WVF9 99-203)” gave a Mean normalized OD in assay [1] of 0.178 OD.

“Clec2j CRD-mouse IgG2a-Fc fusion protein”: the Mean normalized OD in assay [2] was found to be 0.059 OD; in assay [1], 0.005 OD; in assay [3], 0.006 OD.

Consider “Clec4a1 CRD-mouse IgG2a-Fc fusion protein”, for which the values for the Mean normalized OD in assay [2], in assay [1] and in assay [3] were -0.004 OD, 0.024 OD and 0.014 OD, respectively.

Regarding “Clec4a3 CRD-mouse IgG2a-Fc fusion protein”, the Mean normalized OD in assay [2] is 0.001 OD; in assay [1], 0.002 OD; in assay [3] it was 0.002 OD.

Consider “Clec4a4 CRD-mouse IgG2a-Fc fusion protein”, for which the Mean normalized OD in assay [2] was -0.009 OD; in assay [1] it was 0.007 OD; in assay [3] it was 0.004 OD.

As for “Clec4a CRD-mouse IgG2a-Fc fusion protein (from UniProt Q9QZ15 126-233)”, the values for the Mean normalized OD in assay [2], in assay [1] and in assay [3] were 0.062 OD, 0.036 OD and 0.014 OD, respectively.

As for “Clec4b1 CRD-mouse IgG2a-Fc fusion protein”, the Mean normalized OD in assay [2] stood at 0.001 OD; in assay [1], 0.023 OD; in assay [3], 0.013 OD.

As for “Clec4b2 CRD-mouse IgG2a-Fc fusion protein”, the Mean normalized OD is 0.008 OD in assay [2], 0.003 OD in assay [1] and -0.013 OD in assay [3].

For “Clec4f CRD-mouse IgG2a-Fc fusion protein (from UniProt P70194 438-538)”, the Mean normalized OD was 0.194 OD in assay [2], 0.362 OD in assay [1] and -0.146 OD in assay [3].

Consider “Clec4g CRD-mouse IgG2a-Fc fusion protein (from UniProt Q8BNX1 172-287)”, for which the Mean normalized OD in assay [1] amounted to 0.451 OD.

Consider “Colec12 CRD-mouse IgG2a-Fc fusion protein (from UniProt Q8K4Q8 614-731)”, for which, in assay [2], the Mean normalized OD amounted to 0.317 OD.

Turning to “Fcer2a CRD-mouse IgG2a-Fc fusion protein (from UniProt P20693 185-298)”, the Mean normalized OD in assay [2] is -0.004 OD; in assay [1] it was 0 OD; in assay [3] it was 0.007 OD.

Take Gm156 CRD-mouse IgG2a-Fc fusion protein: the values for the Mean normalized OD in assay [2], in assay [1] and in assay [3] were 0.009 OD, 0.048 OD and 0.074 OD, respectively.

Consider IgG2a, for which the Mean normalized OD in assay [2] was -0.003 OD; in assay [1], 0 OD; in assay [3], 0.001 OD.

For “Klrb1b_1 CRD-mouse IgG2a-Fc fusion protein”, the figures for the Mean normalized OD in assay [2], in assay [1] and in assay [3] were 0.003 OD, 0.002 OD and 0.001 OD, respectively.

In the case of Klrc1 CRD-mouse IgG2a-Fc fusion protein, the Mean normalized OD was 0.039 OD in assay [2], 0.01 OD in assay [1] and 0.006 OD in assay [3].

Turning to Klrc2 CRD-mouse IgG2a-Fc fusion protein, the figures for the Mean normalized OD in assay [2], in assay [1] and in assay [3] were 0.104 OD, 0.035 OD and 0.025 OD, respectively.

Take Klrc3 CRD-mouse IgG2a-Fc fusion protein: the figures for the Mean normalized OD in assay [2], in assay [1] and in assay [3] were 0.086 OD, 0.061 OD and -0.007 OD, respectively.

As to “Lgals4_1 CRD-mouse IgG2a-Fc fusion protein (from UniProt Q8K419 19-150)”, in assay [1], the Mean normalized OD turned out to be 0.143 OD.

As for “Lgals6_2 CRD-mouse IgG2a-Fc fusion protein (from UniProt O54891 173-301)”, the Mean normalized OD in assay [2] came to 0.528 OD; in assay [1], 0.073 OD.

As to “Lgals9_2 CRD-mouse IgG2a-Fc fusion protein (from UniProt O08573 225-353)”, in assay [2], the Mean normalized OD was 0.367 OD.

Regarding “Ly75_1 CRD-mouse IgG2a-Fc fusion protein (from UniProt Q60767 225-341)”, the Mean normalized OD in assay [1] was 0.29 OD.

On to “Ly75_2 CRD-mouse IgG2a-Fc fusion protein (from UniProt Q60767 368-486)”, for which the Mean normalized OD in assay [1] is -0.206 OD.

On to “Ly75_5 CRD-mouse IgG2a-Fc fusion protein (from UniProt Q60767 818-932)”, for which the Mean normalized OD in assay [1] is 0.14 OD.

For “Mag CRD-mouse IgG2a-Fc fusion protein (from UniProt P20917 22-120)”, the Mean normalized OD in assay [2] stood at 0.032 OD; in assay [1] it was 0.004 OD; in assay [3], 0.008 OD.

On to “Mbl1 CRD-mouse IgG2a-Fc fusion protein (from UniProt P39039 144-239)”, for which the Mean normalized OD in assay [2] is 0.098 OD; in assay [1] it was 0.019 OD; in assay [3], 0.043 OD.

Consider Mgl2 CRD-mouse IgG2a-Fc fusion protein, for which the Mean normalized OD in assay [2] stood at 0.145 OD; in assay [1], 1.31 OD; in assay [3], 0.598 OD.

“Ncan CRD-mouse IgG2a-Fc fusion protein (from UniProt P55066 1036-1165)” showed a Mean normalized OD in assay [1] of 0.279 OD.

“Olr1 CRD-mouse IgG2a-Fc fusion protein (from UniProt Q9EQ09 242-355)” returned a Mean normalized OD in assay [1] of 0.379 OD.

As for Prg2 CRD-mouse IgG2a-Fc fusion protein, the Mean normalized OD in assay [2] is -0.014 OD; in assay [1], 0.001 OD; in assay [3], 0.009 OD.

For Prg3 CRD-mouse IgG2a-Fc fusion protein, the Mean normalized OD in assay [2] was -0.298 OD; in assay [1], -0.057 OD; in assay [3] it was -0.271 OD.

Reg3d CRD-mouse IgG2a-Fc fusion protein: the Mean normalized OD was determined as 0.152 OD in assay [2], 0.019 OD in assay [1] and 0.019 OD in assay [3].

Take “Siglec5 CRD-mouse IgG2a-Fc fusion protein”: the values for the Mean normalized OD in assay [2], in assay [1] and in assay [3] were 0.146 OD, 0.019 OD and 0.041 OD, respectively.

Consider “Siglec10 CRD-mouse IgG2a-Fc fusion protein (from UniProt Q80ZE3 26-138)”, for which the Mean normalized OD in assay [2] turned out to be 0.299 OD.

For the substance “Siglech CRD-mouse IgG2a-Fc fusion protein”, the Mean normalized OD in assay [2] was -0.003 OD; in assay [1], 0 OD; in assay [3], 0.003 OD.

Regarding “Vcan CRD-mouse IgG2a-Fc fusion protein (from UniProt Q62059 3138-3252)”, the Mean normalized OD in assay [2] is 0.332 OD.

In the case of “human CD209-hIgG1 Fc-fusion protein (from UniProt Q9NNX6 62-404) (Fc fusion)”, in assay [4], the Kd is 2.39 µM, the koff worked out at 0.0316 s⁻¹ and the kon was determined as 13200 M⁻¹ s⁻¹. Moreover, in assay [5], the molecules bound per trimeric Spike (average) (molecules per trimeric Spike) stood at 3.6. In assay [6], this substance displayed a koff of 0.008 s⁻¹ and a xβ (length of dissociation path) of 0.73 nm.

With “human CLEC4G-hIgG1 Fc-fusion protein (Fc fusion)”, the Ki in assay [7] lay in the range of 0.035 to 0.07 µM. In assay [4], the Kd was found to be 0.259 µM, the koff was found to be 0.0201 s⁻¹ and the kon was 77700 M⁻¹ s⁻¹. The same substance displayed a molecules bound per trimeric Spike (average) (molecules per trimeric Spike) in assay [5] of 3.5. In assay [6], the koff was 0.007 s⁻¹ and the xβ (length of dissociation path) worked out at 0.64 nm.
